From article PMC12241546, “PRELP functions via multiple interactions with intrinsically weak affinity relying on ECM anchoring and remodeling” (Scientific Reports, 2025)

B1: Recombinant human full-length PRELP (proline/arginine-rich end leucine-rich repeat protein) (natural protein, UniProt P51888 21-382, looked up)
chain: QPTRRPRPGTGPGRRPRPRPRPTPSFPQPDEPAEPTDLPPPLPPGPPSIFPDCPRECYCPPDFPSALYCDSRNLRKVPVIPPRIHYLYLQNNFITELPVESFQNATGLRWINLDNNRIRKIDQRVLEKLPGLVFLYMEKNQLEEVPSALPRNLEQLRLSQNHISRIPPGVFSKLENLLLLDLQHNRLSDGVFKPDTFHGLKNLMQLNLAHNILRKMPPRVPTAIHQLYLDSNKIETIPNGYFKSFPNLAFIRLNYNKLTDRGLPKNSFNISNLLVLHLSHNRISSVPAINNRLEHLYLNNNSIEKINGTQICPNDLVAFHDFSSDLENVPHLRYLRLDGNYLKPPIPLDLMMCFRLLQSVVI
notes: human PRELP, amino acid residues 21-382 (Uniprot numbering); source: Mimic Sf9 cells, purified from the supernatant (DDDDK-tagged Protein Purification Gel, Benzonase, SEC); not shown: FLAG, C-terminal, kept
B2: Recombinant extracellular domain of human p75NTR (low-affinity nerve growth factor receptor) (receptor, UniProt P08138 29-189, looked up)
chain: KEACPTGLYTHSGECCKACNLGEGVAQPCGANQTVCEPCLDSVTFSDVVSATEPCKPCTECVGLQSMSAPCVEADDAVCRCAYGYYQDETTGRCEACRVCEAGSGLVFSCQDKQNTVCEECPDGTYSDEANHVDPCLPCTVCEDTERQLRECTRWADAECE
notes: also called p75NTR ectodomain; source: Sf9 cells, purified from the culture supernatant (Ni-NTA, SEC)

What was measured:
Conditions in all cases: both partners purified
[1] = biological target: T1, Recombinant mature TGFβ1 dimer (transforming growth factor β1) (human, UniProt P01137 279-390); test: SPR; Biacore T200; PRELP proteins immobilised on CM5 by amine coupling (about 400 RU; chPRELP about 600 RU); TGFβ1 or TGFβRII injected at 30 µL/min; 10 mM HEPES pH 7.5, 150 mM NaCl, 50 mM arginine-HCl, 0.05% Tween-20, 15 °C; global fitting
T1 construct: mature TGFβ1 cut from the human TGFβ1 pro-protein (expressed as amino acid residues 30-390, Uniprot, with C33S in the pro-region); source: ExpiCHO cells, transfected

[2] = biological target: T2, Recombinant extracellular domain of human IGFI-R (insulin-like growth factor I receptor) (human, UniProt P08069 31-935); test: SPR; Biacore T200; PRELP proteins immobilised on CM5 by amine coupling (about 4000 RU; chPRELP about 600 RU for IGFI-R, 2000 RU for p75NTR); IGFI-R or p75NTR injected at 30 µL/min; 10 mM HEPES pH 7.5, 150 mM NaCl, 0.05% Tween-20, 15 °C; equilibrium curve fitting
T2 construct: extracellular domain of human IGFI-R, amino acid residues 31-935 (Uniprot); also called IGFI-R ectodomain; source: ExpiCHO cells, purified from the culture supernatant (Ni-NTA, SEC)

[3] = biological target: B2; test: as above
[4] = biological target: T2, Recombinant extracellular domain of …; test: as above; remark: listed apart in the source
[5] = biological target: B1; test: as above

T2 sequence (P08069 31-935): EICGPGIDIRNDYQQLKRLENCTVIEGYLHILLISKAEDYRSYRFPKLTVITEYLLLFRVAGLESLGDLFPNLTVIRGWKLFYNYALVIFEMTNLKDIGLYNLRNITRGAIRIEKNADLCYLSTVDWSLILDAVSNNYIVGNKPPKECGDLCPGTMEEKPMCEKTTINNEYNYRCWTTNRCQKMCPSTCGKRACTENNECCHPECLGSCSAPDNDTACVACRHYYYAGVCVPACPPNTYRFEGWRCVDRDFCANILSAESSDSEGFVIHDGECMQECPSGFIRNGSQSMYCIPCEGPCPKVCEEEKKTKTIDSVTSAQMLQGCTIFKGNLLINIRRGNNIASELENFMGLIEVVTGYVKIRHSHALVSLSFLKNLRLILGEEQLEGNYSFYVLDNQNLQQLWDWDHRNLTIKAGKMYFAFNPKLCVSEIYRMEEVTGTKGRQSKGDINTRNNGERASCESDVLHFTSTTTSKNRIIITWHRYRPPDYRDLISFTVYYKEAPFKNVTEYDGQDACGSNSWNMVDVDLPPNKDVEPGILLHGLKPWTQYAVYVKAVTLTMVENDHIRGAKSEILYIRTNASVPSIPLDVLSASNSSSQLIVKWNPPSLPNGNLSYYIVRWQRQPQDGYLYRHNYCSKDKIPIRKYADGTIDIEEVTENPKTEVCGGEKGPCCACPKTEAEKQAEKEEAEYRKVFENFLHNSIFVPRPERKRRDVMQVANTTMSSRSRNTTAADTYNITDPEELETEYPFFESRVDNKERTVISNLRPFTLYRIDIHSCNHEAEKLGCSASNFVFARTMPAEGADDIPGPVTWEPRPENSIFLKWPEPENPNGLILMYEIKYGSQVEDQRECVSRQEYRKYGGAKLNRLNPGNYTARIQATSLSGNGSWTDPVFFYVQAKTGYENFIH
T1 sequence (P01137 279-390): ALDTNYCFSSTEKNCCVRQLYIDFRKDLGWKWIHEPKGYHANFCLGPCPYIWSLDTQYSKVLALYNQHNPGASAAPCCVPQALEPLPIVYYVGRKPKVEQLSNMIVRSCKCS

Binder | Kd [1] [µM] | koff [1] [s⁻¹] | kon [1] [M⁻¹ s⁻¹] | Kd [2] [µM] | Kd [3] [µM] | Kd [4] [µM] | Kd [5] [µM]
Recombinant chimeric PRELP (human PRELP 1-268 joined to Listeria monocytogenes internalin B 189-248) (other, signal peptide in the construct; human PRELP, amino acid residues 1-268 (Uniprot), N-terminal half portion with LRR1-7; also called chPRELP; source: Expi293 cells, transfected, purified from the culture supernatant (FLAG-tag purification, SEC)) QPTRRPRPGTGPGRRPRPRPRPTPSFPQPDEPAEPTDLPPPLPPGPPSIFPDCPRECYCPPDFPSALYCDSRNLRKVPVIPPRIHYLYLQNNFITELPVESFQNATGLRWINLDNNRIRKIDQRVLEKLPGLVFLYMEKNQLEEVPSALPRNLEQLRLSQNHISRIPPGVFSKLENLLLLDLQHNRLSDGVFKPDTFHGLKNLMQLNLAHNILRKMPPRVPTAIHQLYLDSNKIETIPNGYFKSFPNLDTLSLEDNQISDIVPLAGLTKLQNLYLSKNHISDLRALAGLKNLDVLELFSQECLNKPIN | 1.21 | 0.362 | 241000 | 15.4 | 14.5 | – | –
N-terminal-truncated PRELP ΔNT24 (domain or fragment, secreted from insect cells (Mimic Sf9), possible N-glycans; C-terminal FLAG tag omitted. The start at 45 is 24 residues removed from the printed mature construct 21-382, which matches removal of the …) SFPQPDEPAEPTDLPPPLPPGPPSIFPDCPRECYCPPDFPSALYCDSRNLRKVPVIPPRIHYLYLQNNFITELPVESFQNATGLRWINLDNNRIRKIDQRVLEKLPGLVFLYMEKNQLEEVPSALPRNLEQLRLSQNHISRIPPGVFSKLENLLLLDLQHNRLSDGVFKPDTFHGLKNLMQLNLAHNILRKMPPRVPTAIHQLYLDSNKIETIPNGYFKSFPNLAFIRLNYNKLTDRGLPKNSFNISNLLVLHLSHNRISSVPAINNRLEHLYLNNNSIEKINGTQICPNDLVAFHDFSSDLENVPHLRYLRLDGNYLKPPIPLDLMMCFRLLQSVVI | 0.512 | 0.142 | 277000 | 3.9 | 11.3 | – | –
B1 | – | – | – | – | – | 7.09 | –
B2 | – | – | – | – | – | – | 12.7
N-terminal-truncated PRELP ΔNT50 (domain or fragment, secreted from insect cells (Mimic Sf9), possible N-glycans; C-terminal FLAG tag omitted. The start at 71 is 50 residues removed from the printed mature construct 21-382, just before the Cys-rich …) PDCPRECYCPPDFPSALYCDSRNLRKVPVIPPRIHYLYLQNNFITELPVESFQNATGLRWINLDNNRIRKIDQRVLEKLPGLVFLYMEKNQLEEVPSALPRNLEQLRLSQNHISRIPPGVFSKLENLLLLDLQHNRLSDGVFKPDTFHGLKNLMQLNLAHNILRKMPPRVPTAIHQLYLDSNKIETIPNGYFKSFPNLAFIRLNYNKLTDRGLPKNSFNISNLLVLHLSHNRISSVPAINNRLEHLYLNNNSIEKINGTQICPNDLVAFHDFSSDLENVPHLRYLRLDGNYLKPPIPLDLMMCFRLLQSVVI | 1.55 | 0.169 | 75100 | 6.97 | 11.7 | – | –
